Measurements from PMC7508885.

Test system: N[C@@H](Cc1ccc(O)cc1)C(=O)O
Experiment: ATP:PPi exchange reaction
Type: biochemical, Pseudomonas aeruginosa
Details: other: other substrate (Tyr or ATP) held at 2 mM; enzyme 0.4 μM; pH 7.5; 37.0 °C

Substance	Km	kcat
P. aeruginosa TyrRS-S (Pseudomonas aeruginosa PAO1)	172 µM	3.8 s⁻¹
P. aeruginosa TyrRS-Z (Pseudomonas aeruginosa PAO1)	29 µM	3.1 s⁻¹
